Laboratory results: patent US20080267971A1 (published 2008)
Substitutions are numbered along the chain they refer to.

T1: human Angiopoietin-2 (human, UniProt O15123 19-496)
T1 construct: Mostly bought recombinant protein (R&D Systems 623-AM/CF, 623-AN; biotinylated BT623) or supernatant of transfected 293F cells; also called Ang-2; rhAng-2
T1 sequence: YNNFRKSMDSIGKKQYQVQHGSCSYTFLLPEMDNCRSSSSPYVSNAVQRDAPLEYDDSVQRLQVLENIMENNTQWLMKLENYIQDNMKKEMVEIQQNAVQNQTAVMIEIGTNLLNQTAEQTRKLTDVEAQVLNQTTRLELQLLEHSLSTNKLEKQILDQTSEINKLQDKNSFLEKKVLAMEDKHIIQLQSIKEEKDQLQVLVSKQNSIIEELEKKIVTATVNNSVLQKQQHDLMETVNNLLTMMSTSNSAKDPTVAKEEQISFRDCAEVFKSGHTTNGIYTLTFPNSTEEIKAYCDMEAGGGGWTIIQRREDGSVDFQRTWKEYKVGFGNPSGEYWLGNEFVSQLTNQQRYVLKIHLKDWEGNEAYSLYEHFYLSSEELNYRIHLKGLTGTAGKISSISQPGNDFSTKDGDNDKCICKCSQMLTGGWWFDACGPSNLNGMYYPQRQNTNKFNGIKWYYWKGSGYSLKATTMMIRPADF

B1: mAb 5.35.1 (antibody, V domains shown)
VH: EVQLVESGGGVVRPGGSLRLSCTTSGFTFDDYGMSWVRQAPGKGLEWVSGINWNGGSTVYADSVKGRFTISRDSAKNSLYLQMNSLRAEDTALYHCARNKQWLWYFDLWGRGTLVTVSS
VL: EIVMTQSPATLSVSPGERATLSCRASQSVSSNLAWYQQKPGQAPRLLIYGASTRATGIPARFSGSGSGTEFTLTISSLQSEDFAVYYCEQYNNWPLTFGGGTKVEIKR
notes: Human hybridoma IgG (XenoMouse); also called x5.35
B2: mAb 5.52.1 (antibody, V domains shown)
VH: QVQLVESGGGVVQPGRSLRLSCAASGFTFSSYGMHWVRQAPGKGLEWVAVRWYDESNKYYADSVKGRFTISRDNSKNTLYLQMNSLRAEDTAVYYCARDPFETGTTFDYWGQGTLVTVSS
VL: DIQMTQSPSSVSASVGDRVTITCRASQGISSWLAWYQQKPGKAPKLLIYAVSSLESGVPSRFSGSGSGTDFTLTISSLQPEDFATYYCQQALTFGGGTKVEIKR
notes: Human hybridoma IgG (XenoMouse); the line 5.52 has entries of its own (347, 349; light chain L2) that differ from the clone 5.52.1 (L5); also called x5.52
B3: mAb 5.83.1 (antibody, V domains shown)
VH: not shown
VL: EIVMTQSPATLSVSPGERATLSCRASQSLISNLAWYQQKPGQAPRLLIFGASTRATGIPARFSGSGSGTEFTLTISSLQSEDFAVYYCHQYNNWWTFGQGTKVEIKR
notes: Human hybridoma IgG (XenoMouse); also called x5.83
B4: mAb 5.108.1 (antibody, V domains shown)
VH: QVQLVESGGGVVQPGRSLRLSCAASGFTFSSYGMHWVRQAPGKGLEWVAVIWYDGSNKYYADSVKGRFTISRDNSKNTLYLQMNSLRAEDTAMYYCARELALWGQGTLVTVSS
VL: B3 VL with L29V, I30S, N32Y, F49Y, S52F, S63R, T69P, H89Q, N92S, N93H
notes: Human hybridoma IgG (XenoMouse); also called x5.108
B5: mAb 5.40.2 (antibody, V domains shown)
VH: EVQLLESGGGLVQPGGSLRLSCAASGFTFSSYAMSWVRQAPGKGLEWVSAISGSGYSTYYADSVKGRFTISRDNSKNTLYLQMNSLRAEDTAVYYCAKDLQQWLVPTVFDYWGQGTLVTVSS
VL: B3 VL with L29V, I30S, A34V, F49Y, G50D, A51S, A60V, H89Q, N93H
notes: Human hybridoma IgG (XenoMouse); also called x5.40
B6: mAb 5.39.1 (antibody, V domains shown)
VH: QVQLVQSGAEVTKPGASVKVSCKASGYTFTAYHMYWVRQAPGQGLEWMGWINPNSGGTNYAQKFQGRVTMTRDTSISTAYMELSRLRSDDSPVYYCARDQGIAAAGPFDYWGQGTLVTVSS
VL: B3 VL with E17D, L29V, I30S, L33F, F49Y, A51S, H89Q, N92H, N93Y, I105F
notes: Human hybridoma IgG (XenoMouse); also called x5.39
B7: mAb 5.13.1 (antibody, V domains shown)
VH: EVQLVESGGGLVQPGGSLRLSCAASGFTFSSYWMSWVRQAPGKGLEWVANIKQDGSEKYYVDSVKGRFTISRDNAKNSLYLQMNSLRAEDTAVYYCARDPGIAVAGPFDYWGQGTLVTVSS
VL: B3 VL with L29V, I30S, F49Y, H89Q, N93H
notes: Human hybridoma IgG (XenoMouse); also called x5.13
B8: mAb 3.31.2 (antibody, V domains shown)
VH: EVQLVESGGGLVQPGGSLRLSCAASGFTFSSYWMSWVRQAPGKGLEWVANIKQDGSDKYYVDSVKGRFTISRDNAKNSLYLRMNSLRAEDTAVFYCARDMGSGWFDYWGQGTLVTVSS
VL: B3 VL with I2V, L29V, I30G, F49Y, Y87C, H89Q, N93H
notes: Human hybridoma IgG (XenoMouse); also called x3.31
B9: mAb 5.88.3 (antibody, V domains shown)
VH: EVQMVESGGGLVQPGGSLRLSCAASGFTLRSYWMSWVRQAPGKGLEWVANIKEDGSEKYHVDSVKGRFTISRDNAENSLFLQMSSLRAEDTAVYYCARDMEASAGLFDYWGQGTLVTVSS
VL: B3 VL with T20I, L29I, I30S, F49Y, H89Q, N93Y
notes: Human hybridoma IgG (XenoMouse); also called x5.88
B10: mAb 3.3.2 (antibody, V domains shown)
VH: B7 VH with A24V, P100Q
VL: B3 VL with S28T, L29V, I30S, N32D, F49Y, T53I, Y87S, H89Q, N92Y
notes: Human hybridoma IgG (XenoMouse); also called 3.3.1; x3.3
B11: mAb 5.54.1 (antibody, V domains shown)
VH: not shown
VL: B3 VL with V85I
notes: Human hybridoma IgG (XenoMouse); also called x5.54
B12: mAb 5.101.1 (antibody, V domains shown)
VH: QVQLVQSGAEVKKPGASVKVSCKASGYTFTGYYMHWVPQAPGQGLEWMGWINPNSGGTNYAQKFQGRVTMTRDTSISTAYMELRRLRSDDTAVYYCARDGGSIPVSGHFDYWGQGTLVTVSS
VL: B3 VL
notes: Human hybridoma IgG (XenoMouse); also called x5.101
B13: mAb 5.62.1 (antibody, V domains shown)
VH: B7 VH
VL: B3 VL with L29V, I30S, F49Y, S52F, H89Q, N93H, E104G
notes: Human hybridoma IgG (XenoMouse); also called x5.62
B14: mAb 5.56.1 (antibody, V domains shown)
VH: QVQLVESGGGVVQPGRSLRLSCAASGFTFSSYGMHWVRQAPGKGLEWVAVIWYDGSNKYYADSVKGRFTISRDNSKNTLYLQMNSLRAEDTAVYYCAREDNWNFYFDYWGQGTLVTVSS
VL: DIQMTQSPSSLSASVGDRVTITCRASQGISYYLAWYQQKPGKVPKLLIYAASTLQSGVPSRFSGSGSGTDFTLTISSLQPEDVATYYCQKYNSAPFTFGPGTKVDIKR
notes: Human hybridoma IgG (XenoMouse); also called x5.56
B15: mAb 5.86.1 (antibody, V domains shown)
VH: B6 VH with T12K, A31G, M48L, S91T, P92A, A97V, G112C
VL: DIRMTQSPSSLSASVGDRVTITCRASQRISTYLNWYQQKPGKAPKFLIYAASSLQSGVPSRFSGSGSGTDFTLTISSLQPEDFATYYCQQSYTTPFTFGPGTKVDIKR
notes: Human hybridoma IgG (XenoMouse); also called x5.86
B16: mAb 5.103.1 (antibody, V domains shown)
VH: QVQLVQSGAEVKKPGASVKVSCKASGYTFTGYYLYWVPQAPGQGLEWMGWISPNSGGTNYAQKFQGRVTMTRDTSISTAYMELSRLRSDDTAVYYCARDQVIAVAGPFDYWAQGTLVTVSS
VL: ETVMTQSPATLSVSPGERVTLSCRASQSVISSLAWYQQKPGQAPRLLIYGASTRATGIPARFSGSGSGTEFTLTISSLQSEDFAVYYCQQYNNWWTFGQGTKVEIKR
notes: Human hybridoma IgG (XenoMouse); also called 5.103.3; x5.103

Target: T1, human Angiopoietin-2
Assay: inhibition of rhAng-2 binding to its receptor

OD650 in inhibition assay | Binder
0.0663 OD650 | B1
0.0627 OD650 | B2
0.0484 OD650 | B3
0.0688 OD650 | B4
0.0691 OD650 | B5
0.0519 OD650 | B6
0.0744 OD650 | B7
0.0516 OD650 | B8
0.0874 OD650 | B9
0.0558 OD650 | B10
0.044 OD650 | B11
0.0824 OD650 | B12
0.065 OD650 | B13
0.0863 OD650 | B14
0.0419 OD650 | B15
0.101 OD650 | B16

Target: T1, human Angiopoietin-2
Assay: Biacore; kd held constant (*)
Description: The label-free surface plasmon resonance (SPR), or Biacore, was utilized to measure the antibody affinity to the antigen. For this purpose, a high-density goat anti-human antibody surface over a CM5 Biacore chip was prepared using routine amine coupling. All the purified mAbs were diluted to approximately 8 μg/ml in HBS-P running buffer containing 100 μg/ml BSA and 10 mg/mL carboxymethyldextran. Each mAb was captured on a separate surface using a 42-second contact time, and a 5-minute wash for stabilization of the mAb baseline.
Data were fit globally to a 1:1 interaction model to determine the binding kinetics.

koff | Binder
≤ 1e-05 s⁻¹ | B1
≤ 1e-05 s⁻¹ | B3
≤ 1e-05 s⁻¹ | B4
≤ 1e-05 s⁻¹ | B5
≤ 1e-05 s⁻¹ | B6
≤ 1e-05 s⁻¹ | B7
≤ 1e-05 s⁻¹ | B8
≤ 1e-05 s⁻¹ | B9
≤ 1e-05 s⁻¹ | B10
≤ 1e-05 s⁻¹ | B11
≤ 1e-05 s⁻¹ | B13
≤ 1e-05 s⁻¹ | B14
≤ 1e-05 s⁻¹ | B16

Target: T1, human Angiopoietin-2
Assay: cell-based or functional assay

EC50, inhibition of Ang-2-induced Tie2 phosphorylation (HEK293F/Tie2, ELISA) | Binder
0.043 µg/mL | B8
0.016 µg/mL | B9
0.046 µg/mL | B10
0.733 µg/mL | B12
0.008 µg/mL | B15
0.095 µg/mL | B16

Target: T1, human Angiopoietin-2
Assay: competition ELISA: biotin-Ang-2 on coated Tie2/Fc
Description: 96-well Nunc Immplates™ were coated with 100 μl of recombinant human Tie2/Fc fusion protein (R&D Systems, Inc., Cat. No. 313-TI-100) at 4 μg/ml by incubating overnight at 4° C. The plates were washed four times using Phosphate Buffer Saline (PBS) with a Skan™ Washer 300 station (SKATRON). The wells were blocked by 100 μl of ABX-blocking buffer (0.5% BSA, 0.1% Tween, 0.01% Thimerosal in PBS) for 1 hour.
The plates were incubated at room temperature for two hours before the unbound molecules were washed off. […] After washing twice, the bound Streptavidin was detected by HRP substrate (R&D Systems, Cat. No. DY998). The plates were incubated for 30 minutes before 450 stop solution (100 μl/well, BioFX, Cat# BSTP-0100-01) was added to terminate the reaction. The light absorbance at 450 nm was determined by a Spectramax Plus reader.
Each concentration of the mAb was tested in duplicate. The concentration-response relationship was found by curve fitting using Graphpad Prism™ graphic software (non-linear, Sigmoid curve). The maximal inhibition (efficacy) and IC₅₀ (potency) were calculated by the software.

EC50 | Efficacy (ratio of bound Ang-2 with mAb 30 µg/ml versus without) | Binder
0.0417 µg/mL | 0.375 ratio | B8
0.156 µg/mL | 0.403 ratio | B9
0.168 µg/mL | 0.388 ratio | B10
0.376 µg/mL | 0.364 ratio | B12
0.133 µg/mL | 0.384 ratio | B15
0.364 µg/mL | 0.232 ratio | B16
